From PMC9198273
Substitutions are numbered along the chain they refer to. Values belong to the molecule of their own block, whether it stands above or below them.

Experiments:
[1] = target: CXCR3-A C-terminally fused with SmBiT (human) (UniProt P49682)
[2] = target: CXCR3-B C-terminally fused with SmBiT (human) (UniProt P49682)
untagged CXCR3-A (human) = untagged CXCR3-A (human) (UniProt P49682)
[3] = target: CXCR3-A C-terminally fused with SmBiT (human) (UniProt P49682); remark: listed apart in the source
[4] = target: CXCR3-B -30, C-terminally fused with SmBiT (human) (UniProt P49682)
[5] = target: CXCR3-B -40, C-terminally fused with SmBiT (human) (UniProt P49682)
[6] = target: CXCR3-B C-terminally fused with SmBiT (human) (UniProt P49682); remark: listed apart in the source

Table 1: miniGi recruitment to CXCR3-A, EC50 of the chemokine (NanoBiT-based assay) [1]: 18.2 nM | Table 1: miniGq recruitment to CXCR3-A, EC50 of the chemokine (NanoBiT-based assay) [1]: 22.2 nM | Table 1: β-arrestin-1 recruitment to CXCR3-A, EC50 of the chemokine (NanoBiT-based assay) [1]: 17.8 nM | Table 1: β-arrestin-2 recruitment to CXCR3-A, EC50 of the chemokine (NanoBiT-based assay) [1]: 2.9 nM | Table 2: β-arrestin-1 recruitment to CXCR3-A, EC50 of the chemokine (NanoBiT-based assay, HEK293T) [1]: 10.7 nM | Table 1: β-arrestin-2 recruitment to CXCR3-B, EC50 of the chemokine (NanoBiT-based assay) [2]: 59.2 nM | Table 1: Gi2 dissociation in CXCR3-A-expressing cells, EC50 of the chemokine (NanoBRET G protein activity sensor) (untagged CXCR3-A (human)): 0.9 nM | Table 1: Go1 dissociation in CXCR3-A-expressing cells, EC50 of the chemokine (NanoBRET G protein activity sensor) (untagged CXCR3-A (human)): 1.9 nM | Table 1: Gq dissociation in CXCR3-A-expressing cells, EC50 of the chemokine (NanoBRET G protein activity sensor) (untagged CXCR3-A (human)): 2.3 nM | Table 1: cAMP, EC50 of the chemokine for the reduction of intracellular cAMP in CXCR3-A-expressing cells (GloSensor) (untagged CXCR3-A (human)): 14.1 nM
Molecule: CXCL10 (from UniProt P02778 22-98) (ligand)

Table 1: miniGi recruitment to CXCR3-A, EC50 of the chemokine (NanoBiT-based assay) [1]: 12.4 nM | Table 1: miniGq recruitment to CXCR3-A, EC50 of the chemokine (NanoBiT-based assay) [1]: 25.9 nM | Table 1: β-arrestin-1 recruitment to CXCR3-A, EC50 of the chemokine (NanoBiT-based assay) [1]: 15.8 nM | Table 1: β-arrestin-2 recruitment to CXCR3-A, EC50 of the chemokine (NanoBiT-based assay) [1]: 2.9 nM | Table 2: β-arrestin-1 recruitment to CXCR3-A, EC50 of the chemokine (NanoBiT-based assay, HEK293T) [1]: 9.6 nM | Table 1: β-arrestin-1 recruitment to CXCR3-B, EC50 of the chemokine (NanoBiT-based assay) [2]: 49.4 nM | Table 1: β-arrestin-2 recruitment to CXCR3-B, EC50 of the chemokine (NanoBiT-based assay) [2]: 12.4 nM | Table 2: β-arrestin-1 recruitment to CXCR3-B, EC50 of the chemokine (NanoBiT-based assay, HEK293T) [2]: 51.6 nM | Table 1: Gi2 dissociation in CXCR3-A-expressing cells, EC50 of the chemokine (NanoBRET G protein activity sensor) (untagged CXCR3-A (human)): 1.2 nM | Table 1: Go1 dissociation in CXCR3-A-expressing cells, EC50 of the chemokine (NanoBRET G protein activity sensor) (untagged CXCR3-A (human)): 1.8 nM | Table 1: Gq dissociation in CXCR3-A-expressing cells, EC50 of the chemokine (NanoBRET G protein activity sensor) (untagged CXCR3-A (human)): 0.4 nM | Table 1: cAMP, EC50 of the chemokine for the reduction of intracellular cAMP in CXCR3-A-expressing cells (GloSensor) (untagged CXCR3-A (human)): 6.3 nM | Table 3: miniGi recruitment to CXCR3-A, EC50 of CXCL11 (NanoBiT-based assay, HEK293T) [3]: 18.2 nM | Table 3: β-arrestin-1 recruitment to CXCR3-A, EC50 of CXCL11 (NanoBiT-based assay) [3]: 6.7 nM | Table 3: miniGi recruitment to CXCR3-B -30, EC50 of CXCL11 (NanoBiT-based assay, HEK293T) [4]: 27.2 nM | Table 3: miniGi recruitment to CXCR3-B -40, EC50 of CXCL11 (NanoBiT-based assay, HEK293T) [5]: 32.7 nM | Table 3: β-arrestin-1 recruitment to CXCR3-B, EC50 of CXCL11 (NanoBiT-based assay) [6]: 23.9 nM
B1: CXCL11 (ligand)
chain: FPMFKRGRCLCIGPGVKAVKVADIEKASIMYPSNNCDKIEVIITLKENKGQRCLNPKSKQARLIIKKVERKNF

Table 2: β-arrestin-1 recruitment to CXCR3-A, EC50 of the chemokine (NanoBiT-based assay, HEK293T) [1]: 14.8 nM | Table 2: β-arrestin-1 recruitment to CXCR3-B, EC50 of the chemokine (NanoBiT-based assay, HEK293T) [2]: 153 nM
B2: CXCL11P2G (ligand)
chain: B1 chain with P2G

Table 1: β-arrestin-2 recruitment to CXCR3-A, EC50 of the chemokine (NanoBiT-based assay) [1]: 16000 nM | Table 1: β-arrestin-2 recruitment to CXCR3-B, EC50 of the chemokine (NanoBiT-based assay) [2]: 100000 nM | Table 1: Gi2 dissociation in CXCR3-A-expressing cells, EC50 of the chemokine (NanoBRET G protein activity sensor) (untagged CXCR3-A (human)): 19.9 nM | Table 1: Go1 dissociation in CXCR3-A-expressing cells, EC50 of the chemokine (NanoBRET G protein activity sensor) (untagged CXCR3-A (human)): 77.8 nM | Table 1: Gq dissociation in CXCR3-A-expressing cells, EC50 of the chemokine (NanoBRET G protein activity sensor) (untagged CXCR3-A (human)): 56 nM | Table 1: cAMP, EC50 of the chemokine for the reduction of intracellular cAMP in CXCR3-A-expressing cells (GloSensor) (untagged CXCR3-A (human)): 21.9 nM
B3: CXCL9 (ligand)
chain: TPVVRKGRCSCISTNQGTIHLQSLKDLKQFAPSPSCEKIEIIATLKNGVQTCLNPDSADVKELIKKWEKQVSQKKKQKNGKKHQKKKVLKVRKSQRSRQKKTT
